The source of these data is patent US20220298260A1 (MYTHIC THERAPEUTICS, published 2022).

In assay [1] the target is T1, FOLR1 (R&D Systems, Cat #5646-FR) (human, UniProt P15328 25-233).
T1 construct: Bought soluble protein; also called Folate Receptor 1
Nature of the assay: BLI, IgG on anti-human Fc sensor.

Assay [2] deals with T1, FOLR1 (R&D Systems, Cat #5646-FR). Nature of the assay: BLI, IgG on anti-human Fc sensor, 50 nM FOLR1.

Changes are numbered by the printed parent chain.

T1 sequence (P15328 25-233 limits assumed): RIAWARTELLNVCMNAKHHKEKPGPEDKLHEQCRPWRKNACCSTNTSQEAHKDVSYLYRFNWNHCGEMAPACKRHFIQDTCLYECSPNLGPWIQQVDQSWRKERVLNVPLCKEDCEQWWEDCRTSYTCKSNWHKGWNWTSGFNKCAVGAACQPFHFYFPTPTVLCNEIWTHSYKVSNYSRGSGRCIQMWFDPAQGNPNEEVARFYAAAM

B1: MYT0613 (antibody, V domains shown)
VH: QVQLVQSGAEVVKPGASVKISCKASGYTFTGYFMNWVKQSPGQSLEWIGRIHHYDGDTFYNQKFQGKATLTVDKSSNTAHMELLSLTSEDFAVYYCTRYDGSRAMDYWGQGTTVTVSS
VL: DIVLTQSPLSLAVSLGQPAIISCKASQSVSFAGTSLMHWYHQKPGQQPRLLIYRASNLEAGVPDRFSGSGSKTDFTLTISPVEAEDAATYYCQQSREYPYTFGGGTKLEIK
notes: IgG
On to B1, for which, in assay [1], the binding result was “no binding (tested: 50 nM)”.

B2: MYT0631 (antibody, V domains shown)
VH: B1 VH with H53P, G101H
VL: B1 VL
notes: IgG
B2: in assay [1], the binding result is “no binding (tested: 50 nM)”.

B3: MYT0634 (antibody, V domains shown)
VH: B1 VH with H53P, A104H
VL: B1 VL
notes: IgG
B3: in assay [1], the binding result is “no binding (tested: 50 nM)”.

B4: MYT2194 (antibody, V domains shown)
VH: EVQLVESGGGVVQPGRSLRLSCSASGFTFSGYGLHWVRQAPGKGLEWVAMISSGGSYTYYADSVKGRFAISRDNAKNTLFLQMDSLRPEDTGVYFCARHGDDPAWFAYWGQGTPVTVSS
VL: DIQLTQSPSSLSASVGDRVTITCSVSSSISSNNLHWYQQKPGKAPKPWIYGTSNLASGVPSRFSGSGSGTDYTFTISSLQPEDIATYYCQQWSSYPYMYTFGQGTKVEIK
notes: IgG
Consider B4, for which the binding result in assay [1] was “no binding (tested: 50 nM)”.

B5: MYT4532 (antibody, V domains shown)
VH: B4 VH with H35S
VL: B4 VL with N54H
notes: IgG
On to B5, for which the binding result in assay [2] is “binds”.

B6: MYT4534 (antibody, V domains shown)
VH: B4 VH with H35S
VL: B4 VL with A56H
notes: IgG
Turning to B6, the binding result in assay [2] is recorded as “binds”.

B7: MYT4543 (antibody, V domains shown)
VH: B4 VH with H35S
VL: B4 VL with Y97H
notes: IgG
In the case of B7, in assay [2], the binding result is recorded as “binds”.

B8: MYT4540 (antibody, V domains shown)
VH: B4 VH with H35S
VL: B4 VL with S94H
notes: IgG
Regarding B8, in assay [2], the binding result is reported as “binds”.

B9: MYT4523 (antibody, V domains shown)
VH: B4 VH with H35S
VL: B4 VL with S30H
notes: IgG
For the molecule B9, the binding result in assay [2] is recorded as “binds”.

B10: MYT4546 (antibody, V domains shown)
VH: B4 VH with H35S
VL: B4 VL with T100H
notes: IgG
Regarding B10, the binding result in assay [2] was “binds”.

B11: MYT2196 (antibody, V domains shown)
VH: B4 VH with H35S, I51H
VL: B4 VL
notes: IgG
For the molecule B11, in assay [1], the binding result is on record as “no binding (tested: 50 nM)”.

B12: MYT4535 (antibody, V domains shown)
VH: B4 VH with H35S
VL: B4 VL with S57H
notes: IgG
As to B12, in assay [2], the binding result is recorded as “binds”.

B13: MYT4542 (antibody, V domains shown)
VH: B4 VH with H35S
VL: B4 VL with P96H
notes: IgG
Regarding B13, the binding result in assay [2] is reported as “binds”.

B14: MYT4544 (antibody, V domains shown)
VH: B4 VH with H35S
VL: B4 VL with M98H
notes: IgG
As for B14, the binding result in assay [2] is “binds”.

B15: MYT4536 (antibody, V domains shown)
VH: B4 VH with H35S
VL: B4 VL with Q90H
notes: IgG
In the case of B15, the binding result in assay [2] is “binds”.

B16: MYT2215 (antibody, V domains shown)
VH: B4 VH with H35S, G100H
VL: B4 VL
notes: IgG
With B16, in assay [1], the binding result is on record as “no binding (tested: 50 nM)”.

B17: MYT4528 (antibody, V domains shown)
VH: B4 VH with H35S
VL: B4 VL with H35A
notes: IgG
Regarding B17, the binding result in assay [2] was “binds”.

B18: MYT4541 (antibody, V domains shown)
VH: B4 VH with H35S
VL: B4 VL with Y95H
notes: IgG
As for B18, the binding result in assay [2] is given as “binds”.

B19: MYT2217 (antibody, V domains shown)
VH: B4 VH with H35S, D102H
VL: B4 VL
notes: IgG
Regarding B19, the binding result in assay [1] is given as “no binding (tested: 50 nM)”.

B20: MYT4545 (antibody, V domains shown)
VH: B4 VH with H35S
VL: B4 VL with Y99H
notes: IgG
B20: in assay [2], the binding result was “binds”.

B21: MYT4527 (antibody, V domains shown)
VH: B4 VH with H35S
VL: B4 VL with L34H
notes: IgG
Take B21: the binding result in assay [2] was “binds”.

B22: MYT4537 (antibody, V domains shown)
VH: B4 VH with H35S
VL: B4 VL with Q91H
notes: IgG
On to B22, for which, in assay [2], the binding result is given as “binds”.

B23: MYT4531 (antibody, V domains shown)
VH: B4 VH with H35S
VL: B4 VL with S53H
notes: IgG
With B23, the binding result in assay [2] was “binds”.

B24: MYT4524 (antibody, V domains shown)
VH: B4 VH with H35S
VL: B4 VL with S31H
notes: IgG
For B24, in assay [2], the binding result was “binds”.

B25: MYT4539 (antibody, V domains shown)
VH: B4 VH with H35S
VL: B4 VL with S93H
notes: IgG
Regarding B25, the binding result in assay [2] was “binds”.

B26: MYT4533 (antibody, V domains shown)
VH: B4 VH with H35S
VL: B4 VL with L55H
notes: IgG
With B26, the binding result in assay [2] is given as “binds”.

B27: MYT2219 (antibody, V domains shown)
VH: B4 VH with H35S, A104H
VL: B4 VL
notes: IgG
For the molecule B27, in assay [1], the binding result is given as “no binding (tested: 50 nM)”.

B28: MYT4529 (antibody, V domains shown)
VH: B4 VH with H35S
VL: B4 VL with G51H
notes: IgG
Take B28: the binding result in assay [2] is recorded as “binds”.

B29: MYT2195 (antibody, V domains shown)
VH: B4 VH with H35S, M50H
VL: B4 VL
notes: IgG
For B29, the binding result in assay [1] is recorded as “no binding (tested: 50 nM)”.

B30: MYT4526 (antibody, V domains shown)
VH: B4 VH with H35S
VL: B4 VL with N33H
notes: IgG
In the case of B30, in assay [2], the binding result is recorded as “binds”.

B31: MYT2221 (antibody, V domains shown)
VH: B4 VH with H35S, F106H
VL: B4 VL
notes: IgG
With B31, in assay [1], the binding result is recorded as “no binding (tested: 50 nM)”.

B32: MYT4530 (antibody, V domains shown)
VH: B4 VH with H35S
VL: B4 VL with T52H
notes: IgG
Consider B32, for which, in assay [2], the binding result is “binds”.

B33: MYT4538 (antibody, V domains shown)
VH: B4 VH with H35S
VL: B4 VL with W92H
notes: IgG
With B33, the binding result in assay [2] was “binds”.

B34: MYT2244 (antibody, V domains shown)
VH: EVQLVESGGGLVQPGGSLRLSCAASGFNIRTQSIHWVRQAPGKGLEWIGDIFPIDGITHYADSVKGRFTISADTSKNTAYLQMNSLRAEDTAVYYCARGSWSWPSGMDYYLDYWGQGTLVTVSS
VL: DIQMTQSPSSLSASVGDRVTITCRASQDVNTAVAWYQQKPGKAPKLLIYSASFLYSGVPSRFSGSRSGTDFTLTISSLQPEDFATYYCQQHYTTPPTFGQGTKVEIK
notes: IgG
As to B34, the binding result in assay [1] was “no binding (tested: 50 nM)”.

B35: MYT4503 (antibody, V domains shown)
VH: B34 VH with H59D
VL: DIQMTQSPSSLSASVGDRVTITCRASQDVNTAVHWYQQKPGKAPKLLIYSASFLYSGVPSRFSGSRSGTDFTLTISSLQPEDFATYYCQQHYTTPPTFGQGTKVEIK
notes: IgG
As for B35, the binding result in assay [1] is “no binding (tested: 50 nM)”.

B36: MYT4501 (antibody, V domains shown)
VH: B34 VH with H59D
VL: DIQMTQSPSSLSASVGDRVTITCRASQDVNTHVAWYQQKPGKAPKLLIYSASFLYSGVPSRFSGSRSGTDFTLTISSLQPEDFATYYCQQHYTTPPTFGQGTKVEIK
notes: IgG
On to B36, for which, in assay [1], the binding result is reported as “no binding (tested: 50 nM)”.

B37: MYT2252 (antibody, V domains shown)
VH: B34 VH with H59D, A97H
VL: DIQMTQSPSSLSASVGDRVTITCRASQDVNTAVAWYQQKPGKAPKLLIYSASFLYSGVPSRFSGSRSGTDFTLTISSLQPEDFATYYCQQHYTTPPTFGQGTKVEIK
notes: IgG
For the molecule B37, the binding result in assay [1] is reported as “no binding (tested: 50 nM)”.

B38: MYT2261 (antibody, V domains shown)
VH: B34 VH with H59D, G106H
VL: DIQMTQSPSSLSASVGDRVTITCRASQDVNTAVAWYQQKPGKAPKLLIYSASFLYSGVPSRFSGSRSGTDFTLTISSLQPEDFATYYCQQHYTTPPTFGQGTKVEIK
notes: IgG
Regarding B38, the binding result in assay [1] was “no binding (tested: 50 nM)”.

B39: MYT2254 (antibody, V domains shown)
VH: B34 VH with H59D, G99H
VL: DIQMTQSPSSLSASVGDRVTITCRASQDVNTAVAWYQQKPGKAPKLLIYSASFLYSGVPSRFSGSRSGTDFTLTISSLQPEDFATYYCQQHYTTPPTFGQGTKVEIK
notes: IgG
Consider B39, for which the binding result in assay [1] is reported as “no binding (tested: 50 nM)”.

B40: MYT2259 (antibody, V domains shown)
VH: B34 VH with H59D, P104H
VL: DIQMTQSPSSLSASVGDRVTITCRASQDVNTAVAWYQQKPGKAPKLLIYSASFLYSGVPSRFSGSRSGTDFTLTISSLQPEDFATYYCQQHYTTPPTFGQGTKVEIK
notes: IgG
With B40, the binding result in assay [1] was “no binding (tested: 50 nM)”.
